Assay results as given in patent US10538802B2, “Polypeptide substrate for the detection of von Williebrand factor cleaving protease ADAMTS13” (IMMUCOR GTI DIAGNOSTICS, INC., priority 2011, dated 2020).

Target: T1, ADAMTS13 (Homo sapiens, UniProt Q76LX8)
T1 construct: tissue Gen-Probe GTI Diagnostics (ATS-13 kit calibrators, controls and proficiency samples); George King Biomedical Inc. (FACT, A-FACT, B-FACT plasmas) ATS-13; host or cells: plasma
T1 sequence (Q76LX8 75-1427): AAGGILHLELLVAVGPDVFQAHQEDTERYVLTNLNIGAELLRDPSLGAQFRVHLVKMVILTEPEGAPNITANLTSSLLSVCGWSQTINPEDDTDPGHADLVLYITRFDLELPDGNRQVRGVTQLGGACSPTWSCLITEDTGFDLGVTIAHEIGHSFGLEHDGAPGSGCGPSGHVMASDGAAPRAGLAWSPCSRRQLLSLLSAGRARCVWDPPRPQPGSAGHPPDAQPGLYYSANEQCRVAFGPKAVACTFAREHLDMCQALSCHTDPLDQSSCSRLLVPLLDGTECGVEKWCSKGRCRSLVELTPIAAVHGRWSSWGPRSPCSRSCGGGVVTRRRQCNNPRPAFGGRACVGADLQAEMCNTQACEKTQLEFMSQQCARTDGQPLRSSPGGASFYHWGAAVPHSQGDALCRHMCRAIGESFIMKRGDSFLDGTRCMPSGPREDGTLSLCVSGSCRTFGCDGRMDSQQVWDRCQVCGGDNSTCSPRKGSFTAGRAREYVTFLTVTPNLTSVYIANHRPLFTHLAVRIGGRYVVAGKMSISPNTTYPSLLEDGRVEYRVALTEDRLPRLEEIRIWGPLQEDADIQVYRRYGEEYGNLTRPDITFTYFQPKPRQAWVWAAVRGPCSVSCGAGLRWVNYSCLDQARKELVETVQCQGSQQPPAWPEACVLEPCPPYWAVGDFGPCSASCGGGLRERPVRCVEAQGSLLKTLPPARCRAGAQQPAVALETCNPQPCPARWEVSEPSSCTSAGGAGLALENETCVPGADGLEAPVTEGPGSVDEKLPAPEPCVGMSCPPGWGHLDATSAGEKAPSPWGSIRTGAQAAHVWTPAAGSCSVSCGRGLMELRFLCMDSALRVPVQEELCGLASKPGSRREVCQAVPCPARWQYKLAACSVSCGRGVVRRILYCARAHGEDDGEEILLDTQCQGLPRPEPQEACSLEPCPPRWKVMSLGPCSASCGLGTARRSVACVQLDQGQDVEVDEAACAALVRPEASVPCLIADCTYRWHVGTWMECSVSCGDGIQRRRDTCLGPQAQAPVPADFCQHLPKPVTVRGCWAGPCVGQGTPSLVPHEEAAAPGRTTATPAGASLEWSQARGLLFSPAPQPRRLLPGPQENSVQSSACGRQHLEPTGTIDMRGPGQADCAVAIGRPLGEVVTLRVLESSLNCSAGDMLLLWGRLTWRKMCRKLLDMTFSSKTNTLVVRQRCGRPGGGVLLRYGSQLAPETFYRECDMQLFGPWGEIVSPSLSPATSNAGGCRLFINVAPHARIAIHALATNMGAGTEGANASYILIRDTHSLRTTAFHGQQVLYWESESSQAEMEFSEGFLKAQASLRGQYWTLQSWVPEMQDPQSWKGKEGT
Assay: ADAMTS13 activity assay with fluorogenic (FRET) polypeptide substrate and diluted plasma samples
Format: biochemical
Procedure: The procedure in this example was performed substantially as described in Kokame, K., Y. Nobe, Y. Kokubo, A. Okayama, and T. Miyata. 2005. FRETS-VWF73, a first fluorogenic substrate for ADAMTS13 assay. Br. J. Haematol. 129:93-100, but using SEQ ID NO: 1 in place of the 73 amino acid substrate described therein. The FRETS-VWF73 substrate solution was dissolved in 25% dimethyl sulphoxide/water to prepare the 100 microM stock solution. The GTI FRET4 SEQ ID NO: 1 was dissolved in 100% DMSO. Both substrates were diluted to equal concentrations using ATS-13 substrate buffer (Gen-Probe GT1 Diagnostics, Inc., U.S.A., Cat#ATS-13).
Plasma samples were diluted according to the ATS-13 Direction Insert using ATS-13 specimen diluent (Gen-Probe GTI Diagnostics, Inc., U.S.A., Cat# ATS-13). The diluted plasma samples were mixed with the diluted substrate and the fluorescence was read at 0, 5, 10, 15, 20, 30, 45 minutes using a Biotek FLX800 at the appropriate excitation and emission wavelengths for each substrate.
The fluorophore-quencher pair in the SEQ ID NO: 1 polypeptide substrate is FAM-5/TQ 2^Tm (Ex 485±20; Em 528±20; AAT Bioquest, Inc. Sunnyvale, Calif. U.S.A.). The fluorophore and quencher pair of FRETS-VWF73 (Nma/Dnp) described in Kokame has been substituted with FAM-5 and TQ_2 respectively in GTI_FRET4 SEQ ID NO: 1. Furthermore, in the SEQ ID NO: 1 polypeptide the position of the fluorophore (FAM-5) and quencher (TQ_2) has been swapped relative to the position of the fluorophore and quencher of the FRETS-VWF73 construct. Therefore, for GTI_FRET4 SEQ ID NO: 1, attachment of the fluorophore (FAM-5) occurs by substituting asparagine with cystine at position 15. The quencher (TQ_2) was attached by substituting glutamine with lysine at position 4 (FIG. 2 and Table 4).
For this experiment, substrate concentration and fluorescence reader settings determined on the previous experiment are used. The specimens tested (listed in Table 3), include a panel of proficiency samples prepared for use with ATS-13 (Gen-Probe GTI Diagnostics, Inc., U.S.A., Cat# ATS-13) which included samples with normal or deficient ADAMTS13 activity levels. In addition, six Factor Assay ConTrol plasma were used (2 FACT, 2 A-FACT and 2 B-FACT, from George King Biomedical Inc., Kansas, USA). The assays for the SEQ ID NO: 1 substrate and for the prior art FRETS-VWF73 assay were performed generally as according to the procedure described in Example 1. Substrate is prepared according to the conditions used for initial testing of the substrate, which prepared the molar amount of SEQ ID NO: 1 polypeptide substrate used in the assay to be equivalent to the molar amount of FRETS-VWF73 used in the prior art. The […] assays were read at 0, 5, 10, 15, 20, 30, 45 minutes.
Testing of substrate for cleavability by ADAMTS13 is determined as is generally described in Example 1. […]

Sequence: DREKAPNLVYMVTGCPASDEIKRLPGDIQVVPIEVIGWPNAPILIQDEETLPREAPDLVLQR [GTI_FRET4]
- % Normal ADAMTS13 Values Calculated Using GTI_FRET4 Substrate (sample Positive Control High, incubation 60 Minutes): 51 % Normal
- % Normal ADAMTS13 Values Calculated Using GTI_FRET4 Substrate (sample Positive Control High, incubation 75 Minutes): 54 % Normal
- % Normal ADAMTS13 Values Calculated Using GTI_FRET4 Substrate (sample Positive Control High, incubation 90 Minutes): 55 % Normal
- Increase in Fluorescence Values (X minute - 0 minute Reading) (sample Positive Control Low, 15 min): 2,182 RFU
- Increase in Fluorescence Values (X minute - 0 minute Reading) (sample Positive Control Low, 30 min): 3,902 RFU
- Increase in Fluorescence Values (X minute - 0 minute Reading) (sample Positive Control Low, 45 min): 5,511 RFU
- Increase in Fluorescence Values (X minute - 0 minute Reading) (sample Positive Control Low, 60 min): 7,169 RFU
- Increase in Fluorescence Values (X minute - 0 minute Reading) (sample Positive Control Low, 75 min): 8,789 RFU
- Increase in Fluorescence Values (X minute - 0 minute Reading) (sample Positive Control Low, 90 min): 10,370 RFU
- % Normal ADAMTS13 Values Calculated Using GTI_FRET4 Substrate (sample Positive Control Low, incubation 15 Minutes): 10 % Normal
- % Normal ADAMTS13 Values Calculated Using GTI_FRET4 Substrate (sample Positive Control Low, incubation 30 Minutes): 10 % Normal
- % Normal ADAMTS13 Values Calculated Using GTI_FRET4 Substrate (sample Positive Control Low, incubation 45 Minutes): 10 % Normal
- % Normal ADAMTS13 Values Calculated Using GTI_FRET4 Substrate (sample Positive Control Low, incubation 60 Minutes): 10 % Normal
- % Normal ADAMTS13 Values Calculated Using GTI_FRET4 Substrate (sample Positive Control Low, incubation 75 Minutes): 10 % Normal
- % Normal ADAMTS13 Values Calculated Using GTI_FRET4 Substrate (sample Positive Control Low, incubation 90 Minutes): 9 % Normal
- Increase in Fluorescence Values (X minute - 0 minute Reading) (sample UAMS041609, 15 min): 3,876 RFU
- Increase in Fluorescence Values (X minute - 0 minute Reading) (sample UAMS041609, 30 min): 7,931 RFU
- Increase in Fluorescence Values (X minute - 0 minute Reading) (sample UAMS041609, 45 min): 11,692 RFU
- Increase in Fluorescence Values (X minute - 0 minute Reading) (sample UAMS041609, 60 min): 15,886 RFU
- Increase in Fluorescence Values (X minute - 0 minute Reading) (sample UAMS041609, 75 min): 19,867 RFU
- Increase in Fluorescence Values (X minute - 0 minute Reading) (sample UAMS041609, 90 min): 24,709 RFU
- % Normal ADAMTS13 Values Calculated Using GTI_FRET4 Substrate (sample UAMS041609, incubation 15 Minutes): 19 % Normal
- % Normal ADAMTS13 Values Calculated Using GTI_FRET4 Substrate (sample UAMS041609, incubation 30 Minutes): 22 % Normal
- % Normal ADAMTS13 Values Calculated Using GTI_FRET4 Substrate (sample UAMS041609, incubation 45 Minutes): 23 % Normal
- % Normal ADAMTS13 Values Calculated Using GTI_FRET4 Substrate (sample UAMS041609, incubation 60 Minutes): 24 % Normal
- % Normal ADAMTS13 Values Calculated Using GTI_FRET4 Substrate (sample UAMS041609, incubation 75 Minutes): 26 % Normal
- % Normal ADAMTS13 Values Calculated Using GTI_FRET4 Substrate (sample UAMS041609, incubation 90 Minutes): 27 % Normal
- Increase in Fluorescence Values (X minute - 0 minute Reading) (sample VF, 15 min): 1,292 RFU
- Increase in Fluorescence Values (X minute - 0 minute Reading) (sample VF, 30 min): 2,436 RFU
- Increase in Fluorescence Values (X minute - 0 minute Reading) (sample VF, 45 min): 3,552 RFU
- Increase in Fluorescence Values (X minute - 0 minute Reading) (sample VF, 60 min): 4,690 RFU
- Increase in Fluorescence Values (X minute - 0 minute Reading) (sample VF, 75 min): 5,784 RFU
- Increase in Fluorescence Values (X minute - 0 minute Reading) (sample VF, 90 min): 7,260 RFU
- % Normal ADAMTS13 Values Calculated Using GTI_FRET4 Substrate (sample VF, incubation 15 Minutes): 5 % Normal
- % Normal ADAMTS13 Values Calculated Using GTI_FRET4 Substrate (sample VF, incubation 30 Minutes): 6 % Normal
- % Normal ADAMTS13 Values Calculated Using GTI_FRET4 Substrate (sample VF, incubation 45 Minutes): 6 % Normal
- % Normal ADAMTS13 Values Calculated Using GTI_FRET4 Substrate (sample VF, incubation 60 Minutes): 6 % Normal
- % Normal ADAMTS13 Values Calculated Using GTI_FRET4 Substrate (sample VF, incubation 75 Minutes): 5 % Normal
- % Normal ADAMTS13 Values Calculated Using GTI_FRET4 Substrate (sample VF, incubation 90 Minutes): 6 % Normal
